Reference: patent US10617652B2, “Polymers and polymeric nanogels with hydrophilics encapsulation and release capabilities and methods thereof” (University of Massachusetts, priority 2014, dated 2020)

Target: T1, acid α-glucosidase (GAA) (Homo sapiens, UniProt P10253)
T1 construct: purchased Genzyme, Inc. (Myozyme)
Assay: GAA activity assay with para-nitrophenol-α-D-glucopyranoside substrate
Type: biochemical
Description: The activity of the encapsulated GAA, relative to the free GAA, was evaluated. It was envisioned that the enzyme would be less available to the substrate, when encapsulated, and therefore would have a lower activity. It follows then that the activity will be recovered when exposing the nanogel to lower pH, as the enzyme will be released in response to the β-thioester cleavage based decrosslinking. The enzymatic activity was measured using para-nitrophenol-α-D-glucopyranoside as substrate, the GAA-assisted cleavage of the α-1,4-linkage of which releases the chromophore p-nitrophenolate (pNP). […] Note, however, that the enzymatic activity of GAA itself at pH 7.4 is undetectable (FIG. 4a).
To activate the GAA from the nanogel, the pH of the solution was reduced to 5.0 using acetate buffer. […] To calibrate the percentage of activity that was recovered after 48 hours of incubation at pH 5.0, the enzymatic activity of the GAA from the nanogel was compared with that of the free enzyme at the same concentration. […]
GAA activity was measured using para-nitrophenol-α-D-glucopyranoside as a substrate in 100 mM Citrate/100 mM Sodium Phosphate buffer at pH 5.0. […] Presence of the product formation (para-nitrophenolate) was then measured by absorbance of 400 nm light on a Molecular Devices Spectra Max M5 at 25° C. […]

Substance: acid α-glucosidase [GAA]
- enzymatic activity at pH 7.4: undetectable
